# According to the supplement of paper PMC10567573:
# B1: C9orf25 (parent)
# chain: LARKGSLKNGSMGSPVNQQPKKNN
# B2: ZNF263 (parent)
# chain: VPGTQVGQGGKLWDPSVQSCKEGL
# Variants of: B1
# Test: protein stability index of a GFP-peptide fusion (GPS, HEK-293T) (PSI 1-6); higher = more stable
# Details: c terminus: a fixed tail appended
# 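Further: lentivirally expressed fusions sorted by FACS into six bins by GFP to DsRed ratio, PSI derived from sequencing read proportions per bin multiplied by bin number.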
row,Variant,protein stability index
1,N24A,4.52
2,N24H,4.79
3,N24Y,3.78
4,N24S,4.7
5,N24G,4.76
6,N24R,4.42
7,N24D,4.85
8,N24M,4.02
9,N24P,4.48
10,N24E,4.14
11,N24I,3.82
12,N24F,3.96
13,N24L,4.76
14,N24C,4.69
15,N24V,3.85
16,N24K,5.08
17,N24W,3.88
18,N24T,4.83
19,N24Q,4.85
20,N23Y,3.82
21,N23T,4.89
22,N23W,4
23,N23S,4.58
24,N23Q,4.64
25,N23V,4.59
26,N23R,4.18

# Variants of: B2
# Test: as above
# Details: c terminus: a fixed tail appended
row,Variant,protein stability index
1,V17C,4.15
2,V17A,4.38
3,V17D,4.92
4,V17E,5.16
5,V17F,3.38
6,K11I,4.26
7,K11F,3.9
8,K11C,4.57
9,K11D,4.63
10,K11S,4.35
11,K11N,4.54
12,K11Q,4.54
13,K11R,4.46
14,K11V,3.61
15,K11Y,4.12
16,K11L,4.13
17,K11P,3.65
18,K11T,4.31
19,K11H,4.03
20,K11A,4
21,K11W,3.72
22,K11E,4.22
23,K11M,4.56
24,K11G,4.44

row,Variant,protein stability index
1,G3I,4.3
2,G3V,3.99
3,G3T,4.32
4,G3P,4.5
5,G3Q,4
6,G3M,3.8
7,G3D,4.96
8,G3Y,4.06
9,G3R,3.35
10,G3N,4.3
11,G3H,4.28
12,G3C,4.12
13,G3S,3.48
14,G3W,3.77
15,G3L,4.1
16,G3F,3.01
17,G3E,4.88
18,G3A,4.21
19,G3K,3.77
20,P15V,3.63
21,P15S,4.03
22,P15E,4.94
23,P15Y,3.16
24,P15F,2.86

row,Variant,protein stability index
1,P15G,4.35
2,P15A,4.22
3,P15I,3.3
4,P15D,4.29
5,P15T,4.25
6,P15R,4.16
7,P15N,4.13
8,P15H,4.01
9,P15L,4.8
10,P15K,4.23
11,P15Q,4.25
12,P15W,3.17
13,P15M,3.54
14,P15C,3.75
15,D14H,4.08
16,D14F,3.07
17,D14P,3.44
18,D14K,3.51
19,D14M,3.36
20,D14R,3.05
21,D14S,3.99
22,D14E,3.78
23,D14N,3.72
24,D14C,3.35

row,Variant,protein stability index
1,D14A,4.14
2,D14T,3.79
3,D14W,3.19
4,D14G,4.1
5,D14Q,4.09
6,D14I,3.66
7,D14Y,3.11
8,D14V,3.87
9,Q8P,4.07
10,Q8N,4.24
11,Q8E,3.48
12,Q8W,3.67
13,Q8A,4.41
14,Q8G,4.28
15,Q8K,4.11
16,Q8L,3.79
17,Q8M,3.97
18,Q8C,3.07
19,Q8T,3.56
20,Q8Y,3.21
21,Q8F,4.17
22,Q8R,4.34
23,Q8H,4.12
24,Q8S,3.71

row,Variant,protein stability index
1,Q8V,4.04
2,Q8I,4.15
3,Q8D,4.71
4,Q5Y,3.25
5,Q5G,4.27
6,Q5R,4.2
7,Q5E,3.94
8,Q5L,4.17
9,Q5N,4.23
10,Q5F,3.3
11,Q5C,4.04
12,Q5A,4
13,Q5W,4.15
14,Q5I,4.16
15,Q5P,4.33
16,Q5K,4.21
17,Q5V,4.24
18,Q5H,4.63
19,Q5M,3.79
20,Q5D,4.16
21,Q5T,4.2
22,Q5S,4.13
23,V1I,4.31
24,V1P,4.78

row,Variant,protein stability index
1,V1G,4.05
2,V1N,4.53
3,V1S,4.19
4,V1Q,4.51
5,V1K,4.36
6,V1W,4.23
7,V1R,4.08
8,V1M,4.69
9,V1L,3.53
10,V1F,1.64
11,V1H,4.17
12,V1T,4.63
13,V1Y,1.85
14,V1C,4.28
15,V1A,4.56
16,V1E,5.15
17,V1D,4.85
18,G7F,3.36
19,G7N,4.76
20,G7A,4.02
21,G7L,3.77
